Test results as given in article PMC2172020.

Molecular target: HIS-CLIP-170 (rat) (UniProt Q9JK25)
Experiment: scanning force microscopy

For “HIS-CLIP-170 (from UniProt Q9JK25 1-1320) (natural protein)”, which stoichiometry N is on record?
The stoichiometry N was 2.
